Ratio to parent data for two molecules are collected here from paper PMC8573869.

Assay [1] deals with T1, endogenous long reticulon-3 (RTN3L), O95197.
T1 chain: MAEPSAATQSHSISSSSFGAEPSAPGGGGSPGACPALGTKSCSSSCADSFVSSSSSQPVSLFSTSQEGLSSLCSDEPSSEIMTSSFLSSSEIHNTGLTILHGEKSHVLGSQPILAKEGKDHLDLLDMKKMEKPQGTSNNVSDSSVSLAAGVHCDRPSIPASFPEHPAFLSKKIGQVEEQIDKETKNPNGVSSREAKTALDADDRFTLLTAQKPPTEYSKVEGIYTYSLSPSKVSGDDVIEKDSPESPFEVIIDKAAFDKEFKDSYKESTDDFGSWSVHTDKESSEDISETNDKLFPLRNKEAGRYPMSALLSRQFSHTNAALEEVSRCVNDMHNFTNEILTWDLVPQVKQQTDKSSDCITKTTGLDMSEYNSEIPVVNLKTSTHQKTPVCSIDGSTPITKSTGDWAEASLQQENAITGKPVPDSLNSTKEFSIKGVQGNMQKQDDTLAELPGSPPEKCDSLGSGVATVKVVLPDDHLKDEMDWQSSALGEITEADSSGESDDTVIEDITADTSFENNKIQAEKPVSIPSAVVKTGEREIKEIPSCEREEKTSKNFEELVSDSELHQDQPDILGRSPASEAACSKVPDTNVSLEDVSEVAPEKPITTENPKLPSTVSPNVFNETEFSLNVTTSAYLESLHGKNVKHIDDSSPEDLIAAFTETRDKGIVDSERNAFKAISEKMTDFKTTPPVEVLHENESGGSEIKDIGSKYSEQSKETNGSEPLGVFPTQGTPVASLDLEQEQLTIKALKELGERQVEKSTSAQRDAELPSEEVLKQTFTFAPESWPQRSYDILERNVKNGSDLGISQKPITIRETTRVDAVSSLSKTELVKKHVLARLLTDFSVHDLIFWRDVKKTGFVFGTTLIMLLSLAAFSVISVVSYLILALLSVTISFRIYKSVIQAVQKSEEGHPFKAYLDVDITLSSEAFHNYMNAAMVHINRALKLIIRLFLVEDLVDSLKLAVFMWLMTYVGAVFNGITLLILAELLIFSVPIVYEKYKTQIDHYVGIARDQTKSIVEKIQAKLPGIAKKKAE
In words: co-immunoprecipitation (anti-FLAG IP, densitometry). The settings on record: chain shown with the change; MCF7 cells transfected for 48 h, crosslinking; n = 3; parent: est. 1.0; read off a plot.

For assay [2], the target named is T2, endogenous family with sequence similarity 134 member B (FAM134B), Q9H6L5.
T2 chain: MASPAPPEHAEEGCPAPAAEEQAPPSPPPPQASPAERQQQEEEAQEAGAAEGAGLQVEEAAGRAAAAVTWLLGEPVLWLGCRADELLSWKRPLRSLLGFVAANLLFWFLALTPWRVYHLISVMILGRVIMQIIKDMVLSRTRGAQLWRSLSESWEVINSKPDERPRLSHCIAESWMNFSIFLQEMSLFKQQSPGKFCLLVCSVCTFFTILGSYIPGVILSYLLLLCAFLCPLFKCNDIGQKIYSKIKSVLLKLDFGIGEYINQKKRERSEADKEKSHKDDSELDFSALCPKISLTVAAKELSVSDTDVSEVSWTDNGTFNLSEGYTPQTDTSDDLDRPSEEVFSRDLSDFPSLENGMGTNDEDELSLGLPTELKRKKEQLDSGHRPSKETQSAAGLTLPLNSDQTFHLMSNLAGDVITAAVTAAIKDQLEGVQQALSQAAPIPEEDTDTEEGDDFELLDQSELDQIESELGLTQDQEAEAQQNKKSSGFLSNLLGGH
The description is as above. The settings on record: chain shown with the change; MCF7 cells transfected for 48 h, crosslinking; n = 3; parent: est. 1.0; read off a plot.

B1: FLAG-tagged wild-type Rab32, Q13637 T39N (protein)
chain: MAGGGAGDPGLGAAAAPAPETREHLFKVLVIGELGVGKNSIIKRYVHQLFSQHYRATIGVDFALKVLNWDSRTLVRLQLWDIAGQERFGNMTRVYYKEAVGAFVVFDISRSSTFEAVLKWKSDLDSKVHLPNGSPIPAVLLANKCDQNKDSSQSPSQVDQFCKEHGFAGWFETSAKDNINIEEAARFLVEKILVNHQSFPNEENDVDKIKLDQETLRAENKSQCC
In the case of B1, the results for the ratio to parent in assay [1] and in assay [2] were 1.3 and 0.75, respectively.

B2: FLAG-tagged wild-type Rab32, Q13637 Q85L (protein)
chain: MAGGGAGDPGLGAAAAPAPETREHLFKVLVIGELGVGKTSIIKRYVHQLFSQHYRATIGVDFALKVLNWDSRTLVRLQLWDIAGLERFGNMTRVYYKEAVGAFVVFDISRSSTFEAVLKWKSDLDSKVHLPNGSPIPAVLLANKCDQNKDSSQSPSQVDQFCKEHGFAGWFETSAKDNINIEEAARFLVEKILVNHQSFPNEENDVDKIKLDQETLRAENKSQCC
On to B2, for which the results for the ratio to parent in assay [1] and in assay [2] were 3.4 and 0.95, respectively.
